Substitutions are numbered along the chain they refer to. Names may count otherwise.
T1: EsCas13d, nuclease-dead (Eubacterium siraeum, UniProt B0MS50, R295A;H300A;R849A;H854A)
T1 sequence: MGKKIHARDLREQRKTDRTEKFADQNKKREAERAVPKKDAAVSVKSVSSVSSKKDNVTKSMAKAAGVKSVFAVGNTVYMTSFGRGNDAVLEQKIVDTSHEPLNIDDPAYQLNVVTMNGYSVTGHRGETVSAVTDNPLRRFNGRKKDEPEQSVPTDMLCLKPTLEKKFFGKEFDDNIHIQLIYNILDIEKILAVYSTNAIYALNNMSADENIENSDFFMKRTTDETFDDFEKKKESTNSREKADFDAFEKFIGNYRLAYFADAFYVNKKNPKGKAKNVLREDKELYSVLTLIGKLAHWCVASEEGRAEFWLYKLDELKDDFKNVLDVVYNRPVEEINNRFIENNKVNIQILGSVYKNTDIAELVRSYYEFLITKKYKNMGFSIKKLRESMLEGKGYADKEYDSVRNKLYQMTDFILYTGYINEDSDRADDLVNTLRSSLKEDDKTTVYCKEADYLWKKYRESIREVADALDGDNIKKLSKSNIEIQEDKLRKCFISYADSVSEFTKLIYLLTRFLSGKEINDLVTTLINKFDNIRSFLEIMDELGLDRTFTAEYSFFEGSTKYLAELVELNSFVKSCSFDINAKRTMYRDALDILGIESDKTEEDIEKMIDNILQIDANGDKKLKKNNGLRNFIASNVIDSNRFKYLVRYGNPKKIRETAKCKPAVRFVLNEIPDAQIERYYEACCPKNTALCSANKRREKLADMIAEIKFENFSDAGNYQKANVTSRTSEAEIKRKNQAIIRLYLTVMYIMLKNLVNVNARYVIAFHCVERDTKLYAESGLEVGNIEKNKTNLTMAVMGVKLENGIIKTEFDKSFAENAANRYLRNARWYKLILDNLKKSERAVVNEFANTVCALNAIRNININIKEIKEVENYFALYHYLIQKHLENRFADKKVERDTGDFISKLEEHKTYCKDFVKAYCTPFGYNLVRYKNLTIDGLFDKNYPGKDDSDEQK

B1: target 1 insC 3' of 18,insC 3' of 1 (mixed)
RNA 1: CACCCGUGCAAAAAUGCAGGGGUCUAAAACUGAGCGGAUAACCUCUCUAUGG
RNA 2: GGGAAUGGAUCCACAUCUACGAAUUCGUACCAUACGAGAGGUUAUCCGCUCACCCGAGAUCGGAAGAGCACACGU
B2: target 1 insC 3' of 18,insA 3' of 7 (mixed)
RNA 1: B1 RNA 1
RNA 2: B1 RNA 2 with C47A, G48C, C49G, U50C, C51U, A52C, C53A
B3: target 1 C2A,C6G (mixed)
RNA 1: B1 RNA 1
RNA 2: GGGAAUGGAUCCACAUCUACGAAUUCGUACCAUAGAGAGGUUAUCGGCUAACCGAGAUCGGAAGAGCACACGU
B4: target 3 insU 3' of 22,insA 3' of 3 (mixed)
RNA 1: CACCCGUGCAAAAUUGCAGGGGUCUAAAACGACCUGAAUAUUUCAGAUCAAA
RNA 2: GGGAAUGGAUCCACAUCUACGAAUUCGUUUUUUGAUCUGAAAUAUUCAGGAUCUGCAGAUCGGAAGAGCACACGU
B5: target 3 G3C,A12G (mixed)
RNA 1: B4 RNA 1
RNA 2: GGGAAUGGAUCCACAUCUACGAAUUCGUUUUUGAUCUGAGAUAUUCAGCUCUGCAGAUCGGAAGAGCACACGU
B6: target 3 G4C (mixed)
RNA 1: B4 RNA 1
RNA 2: B5 RNA 2 with G40A, G48C, C49G
B7: target 3 insU 3' of 3,insG 3' of 1 (mixed)
RNA 1: B4 RNA 1
RNA 2: GGGAAUGGAUCCACAUCUACGAAUUCGUUUUUGAUCUGAAAUAUUCAGGUUCGUGCAGAUCGGAAGAGCACACGU
B8: target 3 G3C,C6G (mixed)
RNA 1: B4 RNA 1
RNA 2: B5 RNA 2 with G40A, C46G
B9: target 3 C6A,U7C (mixed)
RNA 1: B4 RNA 1
RNA 2: B5 RNA 2 with G40A, U45C, C46A, C49G
B10: target 3 C6G (mixed)
RNA 1: B4 RNA 1
RNA 2: B5 RNA 2 with G40A, C46G, C49G
B11: target 3 del2,del5 (mixed)
RNA 1: B4 RNA 1
RNA 2: GGGAAUGGAUCCACAUCUACGAAUUCGUUUUUGAUCUGAAAUAUUCGGCUGCAGAUCGGAAGAGCACACGU
B12: target 3 C1G,G4C (mixed)
RNA 1: B4 RNA 1
RNA 2: B5 RNA 2 with G40A, G48C, C49G, C51G
B13: target 3 insA 3' of 3,insG 3' of 1 (mixed)
RNA 1: B4 RNA 1
RNA 2: B7 RNA 2 with U50A
B14: target 3 insG 3' of 22,insA 3' of 22 (mixed)
RNA 1: B4 RNA 1
RNA 2: GGGAAUGGAUCCACAUCUACGAAUUCGUUUGAUUGAUCUGAAAUAUUCAGGUCUGCAGAUCGGAAGAGCACACGU
B15: target 3 C1G,U7A (mixed)
RNA 1: B4 RNA 1
RNA 2: B5 RNA 2 with G40A, U45A, C49G, C51G
B16: target 3 G4U,A18G (mixed)
RNA 1: B4 RNA 1
RNA 2: B5 RNA 2 with A34G, G40A, G48U, C49G
B17: target 3 insU 3' of 3,insA 3' of 1 (mixed)
RNA 1: B4 RNA 1
RNA 2: B7 RNA 2 with G53A
B18: target 3 insA 3' of 22,insC 3' of 3 (mixed)
RNA 1: B4 RNA 1
RNA 2: B4 RNA 2 with U31A, A51C
B19: target 3 insU 3' of 4,insA 3' of 4 (mixed)
RNA 1: B4 RNA 1
RNA 2: B7 RNA 2 with G49U, U50A, U51G, C52U, G53C
B20: target 3 insU 3' of 6,insU 3' of 3 (mixed)
RNA 1: B4 RNA 1
RNA 2: B7 RNA 2 with A47U, G48A, U50G, C52U, G53C
B21: target 3 insG 3' of 6,insC 3' of 3 (mixed)
RNA 1: B4 RNA 1
RNA 2: B7 RNA 2 with A47G, G48A, U50G, U51C, C52U, G53C
B22: target 3 C6U,A13G (mixed)
RNA 1: B4 RNA 1
RNA 2: B5 RNA 2 with A39G, G40A, C46U, C49G
B23: target 3 insU 3' of 3,insU 3' of 1 (mixed)
RNA 1: B4 RNA 1
RNA 2: B7 RNA 2 with G53U
B24: target 3 C1U,U7A (mixed)
RNA 1: B4 RNA 1
RNA 2: B5 RNA 2 with G40A, U45A, C49G, C51U
B25: target 3 insC 3' of 5,insC 3' of 2 (mixed)
RNA 1: B4 RNA 1
RNA 2: B7 RNA 2 with G48C, U50G, G53C
B26: target 3 U7A (mixed)
RNA 1: B4 RNA 1
RNA 2: B5 RNA 2 with G40A, U45A, C49G
B27: target 3 insG 3' of 7,insA 3' of 3 (mixed)
RNA 1: B4 RNA 1
RNA 2: B7 RNA 2 with C46G, A47C, G48A, U50G, U51A, C52U, G53C
B28: target 3 insA 3' of 21,insU 3' of 3 (mixed)
RNA 1: B4 RNA 1
RNA 2: B4 RNA 2 with U32A, A51U
B29: target 3 A9G (mixed)
RNA 1: B4 RNA 1
RNA 2: B5 RNA 2 with G40A, A43G, C49G
B30: target 3 U7G (mixed)
RNA 1: B4 RNA 1
RNA 2: B5 RNA 2 with G40A, U45G, C49G
B31: target 3 G19U,U20G (mixed)
RNA 1: B4 RNA 1
RNA 2: B5 RNA 2 with U32G, G33U, G40A, C49G
B32: target 3 A5U,C6G (mixed)
RNA 1: B4 RNA 1
RNA 2: B5 RNA 2 with G40A, C46G, A47U, C49G
B33: target 3 C1U,G4C (mixed)
RNA 1: B4 RNA 1
RNA 2: B5 RNA 2 with G40A, G48C, C49G, C51U

The binders below were run against T1, EsCas13d, nuclease-dead (assay: crRNA (strand 1, pre-loaded); Mg2+; 40 mM Tris-HCl pH 7.5, 150 mM NaCl, 6 mM MgCl2, 1 mM DTT, 0.1% Tween-20, 0.2 mg/ml BSA; 25 C; 10 min per concentration, then washed). Details: tags: His6-TwinStrep-SUMO cleaved; N-terminal SNAP kept (SNAP-Surface 488); label: 3' end held by stalled T7 RNA polymerase.

Binder	Kd
B1	29 ± 5 nM
B2	29 ± 1.6 nM
B3	6.03 ± 0.34 nM
B4	22.1 ± 2.4 nM
B5	100 ± 33 nM
B6	10.7 ± 1 nM
B7	37.4 ± 4.85 nM
B8	34.2 ± 4.7 nM
B9	69 ± 9.5 nM
B10	20.4 ± 2.3 nM
B11	5.35 ± 0.45 nM
B12	16.8 ± 3.25 nM
B13	52 ± 11 nM
B14	41.5 ± 4.5 nM
B15	15.3 ± 4.1 nM
B16	9.75 ± 1.45 nM
B17	76.5 ± 19.5 nM

Binder	Kd
B18	15.1 ± 1.55 nM
B19	22.9 ± 3.25 nM
B20	12.9 ± 2 nM
B21	17.5 ± 1.3 nM
B22	34 ± 6 nM
B23	96 ± 24.5 nM
B24	36.5 ± 15.5 nM
B25	9.9 ± 1.35 nM
B26	27.8 ± 3.6 nM
B27	38 ± 5.5 nM
B28	46.3 ± 13.7 nM
B29	29.1 ± 2.85 nM
B30	47 ± 8 nM
B31	33.5 ± 7 nM
B32	39 ± 4.5 nM
B33	~68.5 nM

Source: paper PMC10786891, “Massively parallel profiling of RNA-targeting CRISPR-Cas13d”
